# Experimental data: patent US20240218054A1 (MABLOC, published 2024)
# Where a chain is given by its changes, count along the chain named.
# B1: ADI-49139 (antibody, V domains shown)
# VH: EVQLVETGSGLVRPSGTLSLTCAVSGDSISSNNWWSWVRQPPGKGLEWIGEIYHSGSTSYNPSLKSRVTISIDKSNNHFSLKLTSVTAADTAVYYCAKDMWAGTTTNWFGPWGQGTLVTVSS
# VL: QSVLTQPPSVSAAPGQKVTISCSGSSSNIGYSHVSWYQQLPGTAPKVLIYDNDKRPSGIPDRFSGSKSGTSATLGITGLQTGDEADYYCGTWDTSLGVVFGGGTKLTVL
# notes: full-length IgG; also called Antibody Number 11
# B2: ADI-42227 (antibody, V domains shown)
# VH: EVQLLESGAEVKEPGSSVKVSCKPSGGTFSSYVISWVRQAPGQGLEWMGGIIPIFGTPNYAQKFQGRVTITADDSTSTAHMELSSLTSDDTAVYYCARETYYYGSGSVPVHDWGQGTLVTVSS
# VL: EIVMTQSPSSLSASVGDRVTITCRASQGIRNDLGWYQQKPGKAPKRLIYAASSLQSGVPSRFSGSGSGREFTLTISSLQPEDFATYYCLQHNTYPWTFGQGTKVEIK
# notes: full-length IgG
# B3: ADI-42216 (antibody, V domains shown)
# VH: QVTLKESGPVLVKPTETLTLTCTVSGFSLSNTKMGVTWIRQPPGKALEWLAHIFSNDEKSCNTSLKSRLTISKDTSKSQVVLTMTNMDPVDTATYYCARLWFTEYPGAFDIWGQGTMVTVSS
# VL: QAVVTQPPSASGSPGQSVTISCTGTSSDVGGYNYVSWYQQHPGKAPKLMVYEVTKRPSGVPDRFSGSKSGNAASLTVSGLQAEDEAEYYCSSYAGSNALVFSGGTKLTVL
# notes: full-length IgG; also called Antibody Number 112
# B4: ADI-42149 (antibody, V domains shown)
# VH: QVQLVQSGAEVRKPGASVKVSCKASGYTFTSYGISWVRQAPGQGLEWMGWISTYNGNTNYAQKLQGRVTMTTDTSTSTAYMELRSLRSDDTAVYYCAREIDSNYVFDYWGQGTLVTVSS
# VL: QSVLTQPASVSGSPGQSITISCTGTSSDVGGYNYVSWYQQHPGKAPKLMIYEVSNRPSGVSNRFSGSKSGNTASLTISGLQAEDEADYYCSSYTSSGTNIFGTGTKLTVL
# notes: full-length IgG
# B5: ADI-42141 (antibody, V domains shown)
# VH: QVQLVQSGGGLVQPGGSLRLSCAASGFTFSDHYMDWVRQAPGKGLEWVGRTRNKANSYTTKYAASVKGRFTISRDDSKNSLYLQMNSLKTEDTAVYYCARVEGGAWGAFDIWGQGTTVTVSS
# VL: SYVLTQPPSVSVSPGQTARITCSGDALPKQYGYWYQQKPGQAPVLVIYKDSERPSGIPERFSGSSSGTTVTLTISGVQAEDEADYYCQSADRSGTVVFGGGTKLTVL
# notes: full-length IgG; also called Antibody Number 111
# B6: ADI-49140 (antibody, V domains shown)
# VH: EVQLVESGGGLVQPGGSLRLSCAASGFTFSDHYMDWVRQAPGRGLEWVGRSRNKVNSYTTDYAASVKGRFTISRDDSKNSLFLRMNSLKTEDTAVYYCARLTDSGYDDWGLGTLVTVSS
# VL: QPELTQPPSVSVSPGQTARITCSGDALSKQYAYWYQQKPGQAPVVVIYKDSERPSGIPERFSGSRSGTTVTLTISGVQAEDEADYYCHSPDSHVVFGGGTKLTVL
# notes: full-length IgG
# B7: ADI-45074 (antibody, V domains shown)
# VH: QVQLQQWGAGLLKPSETLSLTCAVYGGSFSGYYWSWIRQPPGKGLEWIGEINHRGSTDYNPSLKSRVTMSVDTSKNQFSLRLSSVTAADTALYYCARGRLAWGLRGQKSPNFFAYWGQGATVTVSS
# VL: DIQMTQSPDSLAVSLGERATINCKSSQSVFYSSNSQNYLAWYQQKPGQPPKLLIYWASTRESGVPDRFSGSGSATDFSLTISSLQAEDVAVYYCQQFHSPPWTFGQGTKLEIK
# notes: full-length IgG
# B8: ADI-42195 (antibody, V domains shown)
# VH: EVQLLESGGGMVQPGRSLRLSCAASGFTFDDYDMHWVRQGPGKGLEWVSGISWNSGGRGYADSVKGRFTISRDNAKNSLYLQMNSLRVEDTALYYCVKDYCSGGRCYSFDYWGQGTLVTVSS
# VL: DIQMTQSPSSLSASVGDRVTITCQASQDISNYLNWYQQKPGKAPKLLIYDVSKLKTGVPPRFSGSGSGTDFTFTISSLQPEDIATYYCQQWGTFGQGTKVDIK
# notes: full-length IgG; also called Antibody Number 116
# B9: ADI-48462 (antibody, V domains shown)
# VH: QVQLVQSGGGVVQPGRSLRLSCAASGFTFSSYGMHWVRQAPGKGLEWVAVIWYDGSNKYYADSVKGRFTISRDNSKNTLYLQMNSLRAEDTAVYYCARDYYGSGDGYFDYWGQGTTVTVSS
# VL: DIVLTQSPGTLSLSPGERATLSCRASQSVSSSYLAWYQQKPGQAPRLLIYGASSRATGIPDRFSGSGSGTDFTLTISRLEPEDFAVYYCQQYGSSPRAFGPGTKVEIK
# notes: full-length IgG; also called Antibody Number 100
# B10: ADI-50534 (antibody, V domains shown)
# VH: EVQLQESGPGLVKPSETLSLTCTVSGGSISSSSYYWGWIRQPPGKGLEWIGSIYYSGSTYYNPSLKSRVTISVDTSKNQFSLKLSSVTAADTAVYYCARHSSGSYYLAGYYFDYWGQGTLVTVSS
# VL: NFMLTQPHSVSESPGKTVTISCTRSSGSIASNYVQWYQQRPGSAPTTVIYEDNQRPSGVPDRFSGSIDSSSNSASLTISGLKTEDEADYYCQSYDSSNWVFGGGTKLTVL
# notes: full-length IgG
# B11: ADI-42172 (antibody, V domains shown)
# VH: QVQLVESGGGVVQPGRSLRLSCAASGFTFSSYGMHWVRQAPGKGLEWVAVMSYDGSNKYYADSLKGRFTISRDNSKNTLYLQMNSLRAEDTAVYFCAKAYDSSAYYYLDYWGQGTLVTVSS
# VL: EIVLTQSPSTLSASVGDRVTITCRASQSISDWLAWYQQKPGKAPNLLIYRASSLESGVPSRFSGSGSGTEFTLTISSLQPDDFATYYCQQYNRYPYTFGQGTKVEIK
# notes: full-length IgG; also called Antibody Number 117
# B12: ADI-42178 (antibody, V domains shown)
# VH: B11 VH with Q1E, V12I, T28N, M51I, L64V, Y94H, F95Y, S103R, A104G
# VL: B11 VL with E1D, V3Q, Y36F, N45K, S53G, S56T, P95S
# notes: full-length IgG
# B13: ADI-45126 (antibody, V domains shown)
# VH: EVQLVESGGGLVQPGGSLRLSCAASGFTFSDHYMDWVRQAPGKGLEWVGRSTNKPNSYTTTYAASVRGRFTISRDESKNSLYLQMNSLKSDDTAVYYCVTTTVILFDYWGQGTLVTVSS
# VL: SYELTQPPSVSVSPGQTARITCSGDALPKKYVYWFQQKSGQAPVLVIYEDRRGPSGIPERFSGSTSGTMATLTIRGAQVEDEADYFCYSTDSSGLLGVFGGGTKLTVL
# notes: full-length IgG; also called Antibody Number 106
# B14: ADI-50220 (antibody, V domains shown)
# VH: EVQLVESGGGVVQPGRSLRLSCAASGFIFSSNSMHWVRQAPGKGLKWVAIISNDGRNKFYADAVKGRFTVSRDNSKNTLYLQMNSLRPEDTAVYYCARGYDSSGYWGFGDNWGQGTLVTVSS
# VL: DIQVTQSPSTLSASVGDRVSITCRASQTISSWLAWYQQKPGKAPKLLMYKASNLQSGVPSRFTGSGSGTEFTLTISSLQPDDFATYYCQQYYSYPYTFGPGTKVDIK
# notes: full-length IgG; also called Antibody Number 110
# B15: ADI-49041 (antibody, V domains shown)
# VH: EVQLVESGGGLVKPGGSLRLSCAASGFTFSHAWMTWVRQAPGKGLEWVGRIKSETDGGTANYAAPVKGRFTISRDDSKNTVYLQMVSLKTEDTAVYYCATAGIFGVVIMKGFDHWGQGTTVTVSS
# VL: DIVMTQSPSTLSASVGDRVVITCRASQSISNWLAWYQQKSGKAPKLLIYKASRLESGVPSTFSGSGSGTEFTLTISSLQADDFASYYCQQYNDYPWTFGQGTKVEIK
# notes: full-length IgG
# B16: ADI-42181 (antibody, V domains shown)
# VH: EVQLVESGGGLVQPGGSLRLSCAASGFTFSNYWMNWVRQAPGKGLEWVANIKQDGSEKYYVDSVKGRFTISRDNAKNSLYLQMNSLRAEDTAVYYCARKLSYSSGWYYFDYWGQGTLVTVSS
# VL: DIVMTQTPATLSVSPGERATLSCRASQSVSSNVAWYQQKPGQAPRLLIHGASTRATGIPARFSGSGSGTEFTLTISSLQSEDFAVYYCQQYNNWPPLTFGGGTKLEIK
# notes: full-length IgG
# B17: ADI-45127 (antibody, V domains shown)
# VH: EVQLVESGPVLVKPTETLRLTCTVSGFSLSNTKLGVSWIRQPPGKALEWLAHIFSNAEKSSSKSLKSRLSISQDTSKSLVVLTMTNMDPVDTATYFCARIPVEYGTPRGSFDTWGQGTTVTVSS
# VL: QSVLTQPPSASGSPGQSVTISCAGTRSDVGGYNFVSWYQQHPGKAPKLLIYEVNKRPSGVPDRFSGSKSANTASLTVSGLQAEDEAEYFCSSYGGNNDLVFGGGTKVTVL
# notes: full-length IgG; also called Antibody Number 101
# B18: ADI-42200 (antibody, V domains shown)
# VH: EVQLVESGGGVVQPGRSLRLSCAASGLTFSTYTLHWVRQAPGKGLEWVAVISSDGGNKYYADSVKGRFTISRDSSKNTLYLQMNSLRTEDTAVYYCAGGSPDYWGQGALVTVSS
# VL: EIVMTQSPATLSLSPGERGTLSCRTSQSVSSFLAWYQQKPGQAPRLLMYDASNRATGIPARFSGSGSGTDFTLTISSLEPEDFAVYYCQQRSNWPYTFGQGTKVDIK
# notes: full-length IgG; also called Antibody Number 102
# B19: ADI-42225 (antibody, V domains shown)
# VH: QVQLQESGPGLVKPSGTLSLTCAVSGGSITSSNWWSWVRQPPGKGLEWIGDIYHSGSTSYNPSLKSRVTISVDKSKNHFSLKLTSVTAADTAVYYCARIAAGYSTSWYYFDYWGQGTLVTVSS
# VL: QSALTQPPSVSAAPGQKVTISCSGSSSNIGNSYVSWYQQVPGTAPKLLIYDNNKRPSGIPDRFSGSKSGTSATLGITGLQAGDEADYYCGTWDTSLSAGRVFGRGTKLTVL
# notes: full-length IgG; also called Antibody Number 10
# B20: ADI-49039 (antibody, V domains shown)
# VH: QVQLQESGPGLVKPSETLSLTCAVSGYSISSGFYWGWIRQPPGKGLEWIGSMYQSGITYYNPSLKSRVTISVDTSKSQFSLKLTSVTAADTAMYYCARNAPENYYGSGRESFDIWGQGTMVTVSS
# VL: QSVLTQPPSVSAAPGQKVTISCSGSSSNIGNNYVSWYQQLPGAAPKLLIYDNKKRPSGIPDRFSGSASGTSATMGITGLQTGDEADYYCGTWDSSLSAWVFGGGTKVTVL
# notes: full-length IgG; also called Antibody Number 1
# B21: ADI-42229 (antibody, V domains shown)
# VH: B20 VH with Q54H, S77N, M120T
# VL: B20 VL with L4V, L40F, G42R, A43T, M74L
# notes: full-length IgG; also called Antibody Number 3
# B22: ADI-50203 (antibody, V domains shown)
# VH: EVQLVESGGGVVQPGRSLRLSCVPSGFTFSSYAMHWVRQAPGKGLEWVAMMSYDGGDKNYADSVKGRFTISRDNSKNTLYLQMRSLRAEDTAIYYCARAYDSRGYYYIEHWGQGTLVTVSS
# VL: GIQLTQSPSTLSASVGDRVTITCRASQSVSDWLAWYQQKPGRAPNLLIYRASSLQSGVPSRFSGSGSGTEFTLTINSLQPDDFATYYCQQYKTYWTFGQGTKVEIK
# notes: full-length IgG; also called Antibody Number 103
# B23: ADI-46741 (antibody, V domains shown)
# VH: EVQLVESGPGLVKPSETLSLTCTVSGGSISSYYWSWIRQPPGKGLEWIGYIYYSGSTNYNPSLKSRVTISVDTSKNQFSLKLSSVTAADTAVYYCARETCSGGSCYYRVGSAFDIWGQGTTVTVSS
# VL: SYELIQLPSASVAPGKTARITCGGNNIGSKSVHWYQQKPGQAPVLVVYDDSDRPSGIPERFSGSNSGNTATLTISRVEAGDEADYYCQVWDSSSDHEVFGGGTKLTVL
# notes: full-length IgG; also called Antibody Number 115
# Molecular target: T1, recombinant YFV E protein (soluble E, sE; YFV Asibi strain) (Yellow fever virus, Asibi strain, UniProt Q6DV88 286-678)
# T1 construct: also called YFV E antigen; YFV E monomer
# T1 sequence (Q6DV88 286-678): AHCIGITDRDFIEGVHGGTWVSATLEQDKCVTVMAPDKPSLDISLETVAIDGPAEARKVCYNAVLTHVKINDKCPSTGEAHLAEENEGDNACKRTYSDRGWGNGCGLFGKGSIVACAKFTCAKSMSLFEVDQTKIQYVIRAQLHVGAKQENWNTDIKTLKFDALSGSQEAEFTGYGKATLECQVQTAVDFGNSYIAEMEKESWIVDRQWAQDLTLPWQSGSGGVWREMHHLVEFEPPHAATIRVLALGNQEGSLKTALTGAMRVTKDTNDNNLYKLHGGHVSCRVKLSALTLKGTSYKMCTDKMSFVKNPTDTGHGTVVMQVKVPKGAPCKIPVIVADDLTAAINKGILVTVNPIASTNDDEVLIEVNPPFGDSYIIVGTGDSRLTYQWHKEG
# Test: BLI monovalent (IgG on tip)
row,Binder,Kd [nM]
1,B1,3.45
2,B2,0.658
3,B3,11.4
4,B4,177
5,B5,1.75
6,B6,1.04
7,B7,0.699
8,B8,1.86
9,B9,> 100
10,B10,> 100
11,B11,129
12,B12,34.4
13,B13,1.68
14,B14,3.64
15,B15,0.997
16,B16,31.5
17,B17,6.69
18,B18,5.63
19,B19,31.5
20,B20,415
21,B21,7.87
22,B22,22.4
23,B23,> 100
